In US20150086555A1 (THERACLONE SCIENCES, published 2015):

Legend:
[1] = molecular target: recombinant soluble homotrimeric HA of A/common magpie/Hong Kong/5052/07 (H5N1) (Influenza A virus A/common magpie/Hong …); assay: trimeric HA microarray, transfection supernatant set 3
[2] = molecular target: recombinant soluble homotrimeric HA of A/common magpie/Hong Kong/5052/07 (H5N1) (Influenza A virus A/common magpie/Hong …); assay: HA microarray, BCC supernatant
[3] = molecular target: recombinant homotrimeric HA A/common magpie/Hong Kong/5052/07 H5N1 (Influenza A virus A/common magpie/Hong …); assay: protein microarray, purified IgG, trimeric HA
[4] = molecular target: recombinant soluble homotrimeric HA, A/common magpie/Hong Kong/5052/07 H5N1 (Influenza A virus A/common magpie/Hong …); assay: microarray, transfection SN IgG, trimeric HA

Binder	Trimeric HA Binding: RLU [3] [RLU]	Trimeric HA Binding: RLU [4] [RLU]	further results
TCN-533 (5256_A17a) (antibody, V domains shown) VH: QVQLVQSGADVKKPGSSVTVSCKASGGSFSNYGINWVRQAPGQGLEWMGGIIPLINAPNYAPKFQGRVTITADMFSNIVSLQLTSLRTDDTAVYYCARRKMTTAIDYWGQGTLVTVSS VL: QPVLTQPPSASASLGASVTLTCTLSSAYSNYKVDWYQQRPGKGPRFVMRVGTGGIVGSKGDGIPDRFSVLGSGLNRYLTIKNIQEEDESDYHCGADHGSGSNFVSPYVFGGGTKLTVL [TCN-533 (5256_A17a), listing 1 of 3 here]			Trimeric HA Binding: RLU [1]: 25200 RLU
TCN-533 (5256_A17a) (antibody, V domains shown) VH: QVQLVQSGADVKKPGSSVTVSCKASGGSFSNYGINWVRQAPGQGLEWMGGIIPLINAPNYAPKFQGRVTITADMFSNIVSLQLTSLRTDDTAVYYCARRKMTTAIDYWGQGTLVTVSS VL: QPVLTQPPSASASLGASVTLTCTLSSAYSNYKVDWYQQRPGKGPRFVMRVGTGGIVGSKGDGIPDRFSVLGSGLNRYLTIKNIQEEDESDYHCGADHGSGSNFVSPYVFGGGTKLTVL [TCN-533 (5256_A17a), listing 2 of 3 here]			Trimeric HA Binding: RLU [2]: 44500 RLU
TCN-533 (5256_A17a) (antibody, V domains shown) VH: QVQLVQSGADVKKPGSSVTVSCKASGGSFSNYGINWVRQAPGQGLEWMGGIIPLINAPNYAPKFQGRVTITADMFSNIVSLQLTSLRTDDTAVYYCARRKMTTAIDYWGQGTLVTVSS VL: QPVLTQPPSASASLGASVTLTCTLSSAYSNYKVDWYQQRPGKGPRFVMRVGTGGIVGSKGDGIPDRFSVLGSGLNRYLTIKNIQEEDESDYHCGADHGSGSNFVSPYVFGGGTKLTVL [TCN-533 (5256_A17a), listing 3 of 3 here]	19000		
TCN-560 (5084_P10) (antibody, V domains shown) VH: EVQLVESGGGLVQPGGSLRLSCAASGFIFRNYWMSWVRQAPGKGLEWVANIKQDGREKYYVDSLRGRVNISRDNAENSLYLHMNSLRVEDTAVYFCARARMVVVTGDGFDVWGHGTMVTVSS VL: DIQMTQSPSSLSASVGDRVTITCRASQNIKRYFNWYQQKPGKAPKLLIYAASNLENGVPSRFSGSGSGTDFTLTISSLQPEDFATYYCQQSFSKSWTFGQGTNVDIK		30500	
TCN-556 (5089_K12) (antibody, V domains shown) VH: QVQLVQSGAEVKKPGASVKVSCKASGYTFIGYDMHWVRQAPGQGLEWMGWINAKRGGTNYAQKFQGRVTMTRDTSISTAYMELNSLRSDDTAVYYCARGVGSRTTIFGVLNPEFDYWGQGTLVTVSS VL: QSALTQPPSASGSPGQSVTISCTGSSSDVGGYDYVSWYQQHPGKAPKLLIYEVTKRPSGVPDRFSGSKSGNTASLTVSGLQAEDEADYYCSSYAGNYNHVFGPGTKVTVL [TCN-556 (5089_K12), listing 1 of 2 here]		20100	
TCN-556 (5089_K12) (antibody, V domains shown) VH: QVQLVQSGAEVKKPGASVKVSCKASGYTFIGYDMHWVRQAPGQGLEWMGWINAKRGGTNYAQKFQGRVTMTRDTSISTAYMELNSLRSDDTAVYYCARGVGSRTTIFGVLNPEFDYWGQGTLVTVSS VL: QSALTQPPSASGSPGQSVTISCTGSSSDVGGYDYVSWYQQHPGKAPKLLIYEVTKRPSGVPDRFSGSKSGNTASLTVSGLQAEDEADYYCSSYAGNYNHVFGPGTKVTVL [TCN-556 (5089_K12), listing 2 of 2 here]	25600		
